# Patent US6991916B2, “Compounds for the treatment of sexual dysfunction” (Pfizer Inc., priority 2000, dated 2006)
# Non-standard residues stand in square brackets, D forms with d. QSY‑7 = quencher dye attached to Cys via maleimide; Rhodamine green = fluorophore at the N-terminus; βAla = NCCC(=O)O
# T1: human SEP (Homo sapiens, UniProt Q495T6)
# T1 construct: with the full length cDNA cloned into the pCMV6-XL4 vector; made in house; host or cells: CHO cells, transient transfection; dialysed culture medium
# T1 sequence (Q495T6 75-779 limits assumed): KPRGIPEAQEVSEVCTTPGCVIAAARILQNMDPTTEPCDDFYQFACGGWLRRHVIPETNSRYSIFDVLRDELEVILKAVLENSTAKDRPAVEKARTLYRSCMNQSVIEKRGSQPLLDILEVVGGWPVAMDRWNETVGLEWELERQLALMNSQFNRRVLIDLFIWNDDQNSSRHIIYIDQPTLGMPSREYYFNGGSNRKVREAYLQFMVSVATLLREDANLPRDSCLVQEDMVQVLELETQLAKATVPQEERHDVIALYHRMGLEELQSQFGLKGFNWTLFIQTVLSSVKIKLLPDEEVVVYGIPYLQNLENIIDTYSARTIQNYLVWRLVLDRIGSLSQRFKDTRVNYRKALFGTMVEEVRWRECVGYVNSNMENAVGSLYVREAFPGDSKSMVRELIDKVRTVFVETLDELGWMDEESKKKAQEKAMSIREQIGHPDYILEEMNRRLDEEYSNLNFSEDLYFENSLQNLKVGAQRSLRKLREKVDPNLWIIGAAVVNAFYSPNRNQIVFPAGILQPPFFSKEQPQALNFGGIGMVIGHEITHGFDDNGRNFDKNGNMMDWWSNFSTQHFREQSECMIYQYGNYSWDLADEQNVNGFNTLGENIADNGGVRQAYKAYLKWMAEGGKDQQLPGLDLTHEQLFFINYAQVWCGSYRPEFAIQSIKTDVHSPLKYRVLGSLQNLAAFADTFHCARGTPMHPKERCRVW
# T2: mouse SEP (Mus musculus, UniProt Q9JLI3)
# T2 sequence (Q9JLI3 1-765): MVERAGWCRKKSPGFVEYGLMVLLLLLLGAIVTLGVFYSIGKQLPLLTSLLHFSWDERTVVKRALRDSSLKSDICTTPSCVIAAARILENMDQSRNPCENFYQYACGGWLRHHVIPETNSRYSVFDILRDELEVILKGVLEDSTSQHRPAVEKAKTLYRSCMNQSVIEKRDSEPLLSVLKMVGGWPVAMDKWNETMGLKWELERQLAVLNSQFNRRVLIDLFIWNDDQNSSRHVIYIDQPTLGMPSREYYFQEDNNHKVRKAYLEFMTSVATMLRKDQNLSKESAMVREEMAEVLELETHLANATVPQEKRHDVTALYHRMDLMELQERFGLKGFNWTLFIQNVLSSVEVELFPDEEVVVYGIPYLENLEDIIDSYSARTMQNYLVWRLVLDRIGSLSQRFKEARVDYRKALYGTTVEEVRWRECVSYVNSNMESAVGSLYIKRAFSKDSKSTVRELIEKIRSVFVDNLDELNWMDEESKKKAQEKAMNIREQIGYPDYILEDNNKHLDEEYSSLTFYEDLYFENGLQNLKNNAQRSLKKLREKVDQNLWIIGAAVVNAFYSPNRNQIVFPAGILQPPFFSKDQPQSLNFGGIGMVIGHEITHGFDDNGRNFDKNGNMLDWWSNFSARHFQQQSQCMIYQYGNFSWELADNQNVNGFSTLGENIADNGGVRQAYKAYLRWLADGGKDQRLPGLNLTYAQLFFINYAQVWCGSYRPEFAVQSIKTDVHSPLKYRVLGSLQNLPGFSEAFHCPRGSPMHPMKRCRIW
# T3: Rhodamine green-Gly-Gly-dPhe-Leu-Arg-Arg-Val-Cys(QSY-7)-betaAla-NH2
# T3 chain: GGFLRRVCA
# Experiments:
# [1] = molecular target: T1, human SEP; experiment: Sensitivity of human SEP to inhibitors; type: biochemical
# Experimental: The enzymatic (proteolytic) activity of human SEP protein can be measured in an assay involving, for example, mixing a sample of the human SEP enzyme with a substrate peptide in a buffer solution (for example 50 mM HEPES; pH 7.4), incubating the mixture for a period of time (such as 1-3 hours) enough for human SEP to act to cleave a measurable portion of the peptide substrate to a product at a temperature suitable for SEP activity (typically 30-37° C.).
# The effect of candidate human SEP inhibitor compounds or control test compounds such as phosphoramidon and thiorphan that may alter the activity of human SEP can be measured in this type of assay by including them in the initial mixture at a range of suitable test concentrations, typically 0.1 nM to 50 µM.
# To determine the IC50 of SEP inhibitors (SEPi; for example, phosphoramidon), multiple SEP assays are performed as described above with a range of test concentrations of inhibitor included in the 50 μl of DMSO solution (made by appropriate dilution of a 10 mM 100% DMSO stock of inhibitor with 4% DMSO/50 mM HEPES pH7.4.). Using a suitable standard graph fitting computer program, a sigmoidal dose response curve is fitted to a plot of log inhibitor concentration versus MaxV (or % inhibition or % activity). The IC50 is calculated as the inhibitor concentration causing 50% maximal inhibition. […]
# [2] = molecular target: T2, mouse SEP; details: cited from earlier work
# [3] = molecular target: T4, NEP enzyme (Homo sapiens, UniProt P08473); experiment: NEP FRET assay (384 well, substrate CP4); type: biochemical; details: steady state kinetics of NEP with the peptide substrate
# T4 construct: made in house; host or cells: Pichia pastoris
# T4 sequence (P08473 whole entry): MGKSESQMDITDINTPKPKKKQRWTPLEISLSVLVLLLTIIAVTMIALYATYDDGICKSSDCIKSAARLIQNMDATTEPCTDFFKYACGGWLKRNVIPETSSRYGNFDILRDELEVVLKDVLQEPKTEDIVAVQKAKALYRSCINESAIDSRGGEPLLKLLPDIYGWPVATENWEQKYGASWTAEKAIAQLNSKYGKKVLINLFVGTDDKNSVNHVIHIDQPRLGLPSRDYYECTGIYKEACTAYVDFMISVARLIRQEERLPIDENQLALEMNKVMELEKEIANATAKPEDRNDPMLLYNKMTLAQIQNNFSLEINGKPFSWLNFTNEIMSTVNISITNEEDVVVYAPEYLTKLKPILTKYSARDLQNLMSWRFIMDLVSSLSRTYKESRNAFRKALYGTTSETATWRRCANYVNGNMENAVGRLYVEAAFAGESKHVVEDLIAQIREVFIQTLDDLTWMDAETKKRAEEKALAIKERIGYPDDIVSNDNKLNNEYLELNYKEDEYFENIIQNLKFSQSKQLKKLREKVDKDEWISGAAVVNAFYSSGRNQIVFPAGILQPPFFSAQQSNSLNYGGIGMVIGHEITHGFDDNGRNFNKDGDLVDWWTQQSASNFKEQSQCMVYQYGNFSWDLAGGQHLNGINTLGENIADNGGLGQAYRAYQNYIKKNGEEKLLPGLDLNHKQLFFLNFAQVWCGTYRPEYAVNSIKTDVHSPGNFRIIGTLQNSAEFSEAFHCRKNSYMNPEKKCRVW
# [4] = molecular target: T3, Rhodamine …
molecule,measurement,setting,value
CC(C)C[C@H](NP(=O)(O)O[C@@H]1O[C@@H](C)[C@H](O)[C@@H](O)[C@H]1O)C(=O)N[C@@H](Cc1c[nH]c2ccccc12)C(=O)O [phosphoramidon],sensitivity of enzyme to inhibitor,[1],sensitive
same,sensitivity of enzyme to inhibitor,[2],sensitive
O=C(O)CNC(=O)C(CS)Cc1ccccc1 (stereo not drawn) [thiorphan],sensitivity of enzyme to inhibitor,[1],sensitive
same,sensitivity of enzyme to inhibitor,[2],sensitive
Rhodamine green-Gly-Gly-dPhe-Leu-Arg-Arg-Val-Cys(QSY™-7)-βAla-NH2 ({Rhodamine green}-GG[dF]LRRVC(QSY‑7)[βAla]-NH2) [CP4],Kcat,[3],5 min⁻¹
same,Km,"[3]; recombinant human enzyme, 50 mM Hepes pH 8, 25° C.",8 µM
Recombinant human NEP (neutral endopeptidase) enzyme (protein) YDDGICKSSDCIKSAARLIQNMDATTEPCTDFFKYACGGWLKRNVIPETSSRYGNFDILRDELEVVLKDVLQEPKTEDIVAVQKAKALYRSCINESAIDSRGGEPLLKLLPDIYGWPVATENWEQKYGASWTAEKAIAQLNSKYGKKVLINLFVGTDDKNSVNHVIHIDQPRLGLPSRDYYECTGIYKEACTAYVDFMISVARLIRQEERLPIDENQLALEMNKVMELEKEIANATAKPEDRNDPMLLYNKMTLAQIQNNFSLEINGKPFSWLNFTNEIMSTVNISITNEEDVVVYAPEYLTKLKPILTKYSARDLQNLMSWRFIMDLVSSLSRTYKESRNAFRKALYGTTSETATWRRCANYVNGNMENAVGRLYVEAAFAGESKHVVEDLIAQIREVFIQTLDDLTWMDAETKKRAEEKALAIKERIGYPDDIVSNDNKLNNEYLELNYKEDEYFENIIQNLKFSQSKQLKKLREKVDKDEWISGAAVVNAFYSSGRNQIVFPAGILQPPFFSAQQSNSLNYGGIGMVIGHEITHGFDDNGRNFNKDGDLVDWWTQQSASNFKEQSQCMVYQYGNFSWDLAGGQHLNGINTLGENIADNGGLGQAYRAYQNYIKKNGEEKLLPGLDLNHKQLFFLNFAQVWCGTYRPEYAVNSIKTDVHSPGNFRIIGTLQNSAEFSEAFHCRKNSYMNPEKKCRVW,Kcat,[4],5 min⁻¹
same,Kcat/Km,[4],"10,500 M^-1 S^-1"
same,Km,[4],8 µM
